Kd and IC50 data for 4 molecules are collected here from publication PMC3708604 (Methods in molecular biology (Clifton, N.J.), 2013).

First the molecules themselves.
B1: FLAG-epitope-tagged human ERβ (receptor, UniProt Q92731 1-530, looked up)
chain: MDIKNSPSSLNSPSSYNCSQSILPLEHGSIYIPSSYVDSHHEYPAMTFYSPAVMNYSIPSNVTNLEGGPGRQTTSPNVLWPTPGHLSPLVVHRQLSHLYAEPQKSPWCEARSLEHTLPVNRETLKRKVSGNRCASPVTGPGSKRDAHFCAVCSDYASGYHYGVWSCEGCKAFFKRSIQGHNDYICPATNQCTIDKNRRKSCQACRLRKCYEVGMVKCGSRRERCGYRLVRRQRSADEQLHCAGKAKRSGGHAPRVRELLLDALSPEQLVLTLLEAEPPHVLISRPSAPFTEASMMMSLTKLADKELVHMISWAKKIPGFVELSLFDQVRLLESCWMEVLMMGLMWRSIDHPGKLIFAPDLVLDRDEGKCVEGILEIFDMLLATTSRFRELKLQHKEYLCVKAMILLNSSMYPLVTATQDADSSRKLAHLLNAVTDALVWVIAKSGISSQQQSMRLANLLMLLSHVRHASNKGMEHLLNMKCKNVVPVYDLLLEMLNAHVLRGCKSSITGSECSPAEDSKSKEGSQNPQSQ
B2: Full-length FLAG-epitope-tagged human ERα (receptor, UniProt P03372 1-595, looked up)
chain: MTMTLHTKASGMALLHQIQGNELEPLNRPQLKIPLERPLGEVYLDSSKPAVYNYPEGAAYEFNAAAAANAQVYGQTGLPYGPGSEAAAFGSNGLGGFPPLNSVSPSPLMLLHPPPQLSPFLQPHGQQVPYYLENEPSGYTVREAGPPAFYRPNSDNRRQGGRERLASTNDKGSMAMESAKETRYCAVCNDYASGYHYGVWSCEGCKAFFKRSIQGHNDYMCPATNQCTIDKNRRKSCQACRLRKCYEVGMMKGGIRKDRRGGRMLKHKRQRDDGEGRGEVGSAGDMRAANLWPSPLMIKRSKKNSLALSLTADQMVSALLDAEPPILYSEYDPTRPFSEASMMGLLTNLADRELVHMINWAKRVPGFVDLTLHDQVHLLECAWLEILMIGLVWRSMEHPGKLLFAPNLLLDRNQGKCVEGMVEIFDMLLATSSRFRMMNLQGEEFVCLKSIILLNSGVYTFLSSTLKSLEEKDHIHRVLDKITDTLIHLMAKAGLTLQQQHQRLAQLLLILSHIRHMSNKGMEHLYSMKCKNVVPLYDLLLEMLDAHRLHAPTSRGGASVEETDQSHLATAGSTSSHSLQKYYITGEAEGFPATV

Experiment [1] deals with Full-length FLAG-epitope-tagged human SRC1a (human, UniProt Q15788-1 1-1441). Briefly: fluorescence polarisation.
Experiment [2] addresses B2. Kind of experiment: fluorescence polarisation.

Full-length FLAG-epitope-tagged human SRC1a, sequence (Q15788 whole entry): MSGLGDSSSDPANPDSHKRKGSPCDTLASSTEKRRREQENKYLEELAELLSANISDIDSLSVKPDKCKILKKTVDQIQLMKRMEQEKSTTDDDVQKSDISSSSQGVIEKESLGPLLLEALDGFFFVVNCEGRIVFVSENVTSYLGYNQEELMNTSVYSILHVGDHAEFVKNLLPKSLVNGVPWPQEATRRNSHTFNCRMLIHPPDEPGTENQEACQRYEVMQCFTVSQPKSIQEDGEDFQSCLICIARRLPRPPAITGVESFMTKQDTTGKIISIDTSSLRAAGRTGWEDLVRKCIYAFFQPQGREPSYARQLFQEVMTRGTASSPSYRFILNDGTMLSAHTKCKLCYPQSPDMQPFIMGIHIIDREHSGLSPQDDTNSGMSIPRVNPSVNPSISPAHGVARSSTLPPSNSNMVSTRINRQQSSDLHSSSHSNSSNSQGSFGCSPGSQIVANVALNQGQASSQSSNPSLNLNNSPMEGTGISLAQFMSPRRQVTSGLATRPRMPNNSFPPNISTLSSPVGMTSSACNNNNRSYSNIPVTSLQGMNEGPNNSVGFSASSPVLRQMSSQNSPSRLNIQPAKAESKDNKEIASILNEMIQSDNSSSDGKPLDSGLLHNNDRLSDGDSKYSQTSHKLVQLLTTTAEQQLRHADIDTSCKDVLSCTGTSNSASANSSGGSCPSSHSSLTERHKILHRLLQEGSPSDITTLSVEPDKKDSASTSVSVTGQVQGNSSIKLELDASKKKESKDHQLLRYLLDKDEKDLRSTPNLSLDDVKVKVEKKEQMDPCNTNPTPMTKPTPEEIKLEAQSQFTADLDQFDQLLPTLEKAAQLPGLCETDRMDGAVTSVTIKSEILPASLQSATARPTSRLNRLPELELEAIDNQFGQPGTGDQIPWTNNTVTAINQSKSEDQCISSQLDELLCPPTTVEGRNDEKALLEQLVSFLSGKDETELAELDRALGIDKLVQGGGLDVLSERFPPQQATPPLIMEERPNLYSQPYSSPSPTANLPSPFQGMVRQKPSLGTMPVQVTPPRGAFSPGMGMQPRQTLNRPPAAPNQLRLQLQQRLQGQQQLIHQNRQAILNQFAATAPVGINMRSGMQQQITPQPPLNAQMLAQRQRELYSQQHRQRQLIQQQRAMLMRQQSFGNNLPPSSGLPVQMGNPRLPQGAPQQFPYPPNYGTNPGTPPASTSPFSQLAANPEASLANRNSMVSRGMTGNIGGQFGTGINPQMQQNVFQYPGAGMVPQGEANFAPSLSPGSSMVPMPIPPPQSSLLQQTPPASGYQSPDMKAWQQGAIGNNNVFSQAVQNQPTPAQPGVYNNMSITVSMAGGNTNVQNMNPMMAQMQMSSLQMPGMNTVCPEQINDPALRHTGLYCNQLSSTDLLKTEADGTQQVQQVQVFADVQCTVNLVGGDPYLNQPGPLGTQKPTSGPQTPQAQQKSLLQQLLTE

In experiment [1], B1 registered a Kd of about 6 nM.
The molecule LTERHKILHRLLQE [SRC1 NR Box 2 peptide] came in with an IC50 in experiment [2] of about 1000 nM.
Same read-out and setting: as for QAQQKSLLQQLLTE [SRC1 NR Box 4 peptide], the figure is about 3800 nM.
In the case of B2, the Kd in experiment [1] is about 14 nM.
